Assay results published in patent US20150299296A1 (Chugai, published 2015).

What was measured:
Experiment in all cases: SPR
[1] = target: T1, human FcγRIIa type H extracellular domain with C-terminal His tag (human, UniProt P12318 34-217)
T1 construct: extracellular domain; also called FcgRIIaH; FcγRIIa H
T1 sequence (looked up): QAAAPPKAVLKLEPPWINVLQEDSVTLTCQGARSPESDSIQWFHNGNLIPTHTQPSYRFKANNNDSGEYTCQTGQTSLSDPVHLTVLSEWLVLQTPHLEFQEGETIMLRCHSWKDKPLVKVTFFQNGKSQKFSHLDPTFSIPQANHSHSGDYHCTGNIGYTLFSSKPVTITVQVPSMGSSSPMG

[2] = target: T2, human FcγRIa extracellular domain with C-terminal His tag (human, UniProt P12314 16-292)
T2 construct: Whole entry named; also called FcgRIa; FcgIa

[3] = target: T3, human FcγRIIIa type V extracellular domain with C-terminal His tag (human, UniProt P08637 17-208)
T3 construct: extracellular domain; also called FcgRIIIaV; FcγRIIIaV

Measured: binding result

T2 sequence (P12314 16-292): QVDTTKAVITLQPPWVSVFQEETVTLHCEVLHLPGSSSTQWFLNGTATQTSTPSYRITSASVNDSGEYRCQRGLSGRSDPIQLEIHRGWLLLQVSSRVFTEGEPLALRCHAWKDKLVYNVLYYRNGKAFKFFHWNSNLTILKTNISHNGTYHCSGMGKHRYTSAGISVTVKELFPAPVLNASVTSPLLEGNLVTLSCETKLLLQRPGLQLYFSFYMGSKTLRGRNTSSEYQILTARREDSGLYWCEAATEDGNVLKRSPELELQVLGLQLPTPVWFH
T3 sequence (P08637 17-208 F176V): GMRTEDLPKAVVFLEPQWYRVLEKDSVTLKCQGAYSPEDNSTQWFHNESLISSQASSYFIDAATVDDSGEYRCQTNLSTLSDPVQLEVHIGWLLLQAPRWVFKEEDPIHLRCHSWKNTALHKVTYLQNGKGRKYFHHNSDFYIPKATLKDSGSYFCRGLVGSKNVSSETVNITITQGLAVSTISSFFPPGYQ

B1: IL6R-BP253/IL6R-L (antibody, human IgG1, kappa)
heavy: QVQLQESGPGLVKPSETLSLTCAVSGHSISHDHAWSWVRQPPGEGLEWIGFISYSGITNYNPSLQGRVTISRDNSKNTLYLQMNSLRAEDTAVYYCARSLARTTAMDYWGEGTLVTVSSASTKGPSVFPLAPSSKSTSGGTAALGCLVKDYFPEPVTVSWNSGALTSGVHTFPAVLQSSGLYSLSSVVTVPSSSLGTQTYICNVNHKPSNTKVDKKVEPKSCDKTHTCPPCPAPELLGGPSVFLFPPKPKDTLMISRTPEVTCVVVDVEHEDPEVKFNWYVDGVEVHNAKTKPREEQYNSTYRVVSVLTVLHQDWLNGKEYKCKVSNKAFPAPIEKTISKAKGQPREPQVYTLPPSRDELTKNQVSLTCLVKGFYPSDIAVEWESNGQPENNYKTTPPVLDSDGSFFLYSKLTVDKSRWQQGNVFSCSVMHEALHNHYTQESLSLSP
light: not shown
notes: IL6R-B3 with S267E and L328F; also called IL6R-BP253/ILR-L
binds: all assays above
